Test results taken from publication PMC6642826.
One block for each molecule: values may come before it.

Assays:
[1] = target: RelA (Mus musculus) (UniProt Q04207); conditions: cited from earlier work
[2] = target: Oregon Green 488-labelled RelA(19–321)-p50(39–350) heterodimer (murine) (UniProt Q04207); experiment: fluorescence polarisation
[3] = target: Oregon Green 488-labelled RelA dimerization domain homodimer (murine) (UniProt Q04207); experiment: fluorescence polarisation
[4] = target: Oregon Green 488-labelled p50(39–350)-cRel(1–294) heterodimer (murine) (UniProt P25799); experiment: fluorescence polarisation
[5] = target: RelA homodimer as used for SPR (murine) (UniProt Q04207); experiment: SPR
[6] = target: RelA-p50 heterodimer as used for SPR (murine) (UniProt Q04207); experiment: SPR
[7] = target: labelled p50(39–350) homodimer (murine) (UniProt P25799); experiment: fluorescence polarisation

Molecule: RelA (from UniProt Q04207)
Kd [1]: 800 nM

Kd [2]: 0.89 nM
Kd [3]: 0.072 nM
Kd [4]: 0.92 nM
Kd [5]: 0.07 nM
Kd [6]: 1.1 nM
Molecule: IKBβ(50–359) (domain or fragment)

Kd [3]: 0.28 nM
Kd [5]: 0.054 nM
Molecule: IKBα(67–287) (from UniProt P25963 67-287) (domain or fragment)

Kd [7]: 0.81 nM
B1: (His)6-IKBε(40–364) (domain or fragment)
chain: SSQSGCPQPWRHAPETHKEPEKEDADGERADSTYASSSLTESFPLLERPEAKDPSPPAPGSPLPPAGVLSPQQLEALTYISEDGDTLLHLAVIHEAPSVLFCCLAFLPQEVLDIQNNLYQTALHLAVHLDQPDVVRALVLKGASRILQDQHGDTALHVACRRQNLACACCLLEEQPEPGRQLSHPLDLQLKNWQGLACLHIATLQRNQPLIELLLQNGADIDVQEGTSGKTALHLAVETQERSLVQFLLQAGARVDARMLNGCTPLHLAAGRGLNSISSTLCEAGADSLLLNVEDETPQDLAEDLLSYLPFDDLKISGKPLLCTD
